Key:
PARP4 BRCT-WGR-CAT WT [1] = biological target: T1, PARP4 BRCT-WGR-CAT WT (human, UniProt Q9UKK3 1-573); experiment: FP; 15 nM probe; FP: 50 mM Tris pH 7.5, 50 mM NaCl, 1 mM MgCl2, 0.05% NP40, 2 mM DTT, 5% glycerol, 25 ug/ml BSA, room temp 30 min; EMSA: 50 mM Tris pH 7.5, 50 mM NaCl, 4% Ficoll PM400, 0.05% NP40, 2 mM DTT, 0-18 uM protein, room temp 30 min, gel at 4 C; settings: protein: recombinant, tags: N-terminal His-SUMO removed by TEV
T1 sequence: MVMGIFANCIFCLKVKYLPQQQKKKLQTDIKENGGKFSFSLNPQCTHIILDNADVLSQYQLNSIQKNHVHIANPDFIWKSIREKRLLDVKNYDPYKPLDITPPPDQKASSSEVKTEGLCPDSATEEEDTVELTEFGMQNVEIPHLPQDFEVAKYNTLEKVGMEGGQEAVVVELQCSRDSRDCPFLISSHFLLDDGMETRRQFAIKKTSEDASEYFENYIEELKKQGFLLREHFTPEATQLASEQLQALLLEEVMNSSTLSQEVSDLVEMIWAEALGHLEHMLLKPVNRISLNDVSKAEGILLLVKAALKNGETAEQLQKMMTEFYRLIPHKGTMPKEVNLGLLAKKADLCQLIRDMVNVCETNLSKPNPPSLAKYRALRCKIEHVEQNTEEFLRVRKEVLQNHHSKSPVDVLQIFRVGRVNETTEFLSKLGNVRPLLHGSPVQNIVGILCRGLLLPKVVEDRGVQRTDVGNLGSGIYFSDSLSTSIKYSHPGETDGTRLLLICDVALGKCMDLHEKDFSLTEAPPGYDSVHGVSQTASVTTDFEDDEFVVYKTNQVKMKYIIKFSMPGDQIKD

PARP4 BRCT-WGR-CAT WT [2] = biological target: T1, PARP4 BRCT-WGR-CAT WT; experiment: EMSA; 20 nM probe; FP: 50 mM Tris pH 7.5, 50 mM NaCl, 1 mM MgCl2, 0.05% NP40, 2 mM DTT, 5% glycerol, 25 ug/ml BSA, room temp 30 min; EMSA: 50 mM Tris pH 7.5, 50 mM NaCl, 4% Ficoll PM400, 0.05% NP40, 2 mM DTT, 0-18 uM protein, room temp 30 min, gel at 4 C; settings: protein: recombinant; tags: N-terminal His-SUMO removed by TEV; label: 5'-6-FAM; single strand, predicted fold
PARP4 BRCT WT = biological target: T2, PARP4 BRCT WT (human, UniProt Q9UKK3 1-100); experiment: FP; 3 nM probe; FP: 50 mM Tris pH 7.5, 50 mM NaCl, 1 mM MgCl2, 0.05% NP40, 2 mM DTT, 5% glycerol, 25 ug/ml BSA, room temp 30 min; EMSA: 50 mM Tris pH 7.5, 50 mM NaCl, 4% Ficoll PM400, 0.05% NP40, 2 mM DTT, 0-18 uM protein, room temp 30 min, gel at 4 C; settings: protein: recombinant; tags: N-terminal His-SUMO removed by TEV; label: 5'-6-FAM; predicted intramolecular fold
T2 sequence: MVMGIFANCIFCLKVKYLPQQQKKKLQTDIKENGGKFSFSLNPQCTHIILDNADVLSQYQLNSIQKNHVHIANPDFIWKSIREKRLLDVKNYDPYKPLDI

B1: Probe 2 (structured_RNA)
RNA: GUCAUCAAACCACCUCUCUGGGUUGUUCGAGAC
PARP4 BRCT-WGR-CAT WT [1]; label: 5'-6-FAM, single strand, predicted fold
  Kd: 44 ± 13 µM
PARP4 BRCT-WGR-CAT WT [2]
  Kd: 11 ± 3 µM

B2: Probe 1 (dsRNA)
RNA 1: GGCUGGCUUUAGCUCAGCGG
RNA 2: CCGCGGGCGCUCUCCAGCCCUCUU
PARP4 BRCT-WGR-CAT WT [1]; label: 5'-6-FAM on strand 1, two-strand partial duplex
  Kd: 25 ± 10 µM

B3: vtRNA1-2 (structured_RNA)
RNA: GGCUGGCUUUAGCUCAGCGGUUACUUCGAGUACAUUGUAACCACCUCUCUGGGUGGUUCGAGACCCGCGGGUGCUUUCCAGCUCUUUU
PARP4 BRCT WT
  Kd: 20 ± 5 µM

B4: vtRNA1-1 (structured_RNA)
RNA: GGCUGGCUUUAGCUCAGCGGUUACUUCGACAGUUCUUUAAUUGAAACAAGCAACCUGUCUGGGUUGUUCGAGACCCGCGGGCGCUCUCCAGUCCUUUU
PARP4 BRCT WT
  Kd: 13 ± 4 µM
